Results: patent US20220273767A1 (SYNTHORX, published 2022)

What was measured:
[1] = biological target: T1, IL-10 receptor signaling complex on mouse splenocytes (CD8 T cells, NK cells, B cells) (mouse, UniProt Q61727 17-575; Q61190 20-349); test: cell-based or functional assay
T1 sequence (looked up) 1: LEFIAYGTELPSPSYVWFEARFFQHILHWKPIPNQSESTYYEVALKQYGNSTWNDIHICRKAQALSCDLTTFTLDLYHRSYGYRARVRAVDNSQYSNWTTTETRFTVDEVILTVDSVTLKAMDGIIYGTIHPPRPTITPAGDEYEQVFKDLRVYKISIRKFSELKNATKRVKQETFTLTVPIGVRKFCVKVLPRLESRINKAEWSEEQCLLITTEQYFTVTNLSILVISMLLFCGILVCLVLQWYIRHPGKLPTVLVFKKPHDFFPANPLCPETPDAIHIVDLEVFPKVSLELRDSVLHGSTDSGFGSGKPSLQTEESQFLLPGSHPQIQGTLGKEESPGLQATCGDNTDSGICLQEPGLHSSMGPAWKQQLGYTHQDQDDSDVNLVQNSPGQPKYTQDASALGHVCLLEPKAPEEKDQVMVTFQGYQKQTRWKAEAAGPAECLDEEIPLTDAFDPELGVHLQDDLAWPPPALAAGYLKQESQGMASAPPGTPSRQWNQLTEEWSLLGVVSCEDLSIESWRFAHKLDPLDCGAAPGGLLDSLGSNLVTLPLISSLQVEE
T1 sequence (looked up) 2: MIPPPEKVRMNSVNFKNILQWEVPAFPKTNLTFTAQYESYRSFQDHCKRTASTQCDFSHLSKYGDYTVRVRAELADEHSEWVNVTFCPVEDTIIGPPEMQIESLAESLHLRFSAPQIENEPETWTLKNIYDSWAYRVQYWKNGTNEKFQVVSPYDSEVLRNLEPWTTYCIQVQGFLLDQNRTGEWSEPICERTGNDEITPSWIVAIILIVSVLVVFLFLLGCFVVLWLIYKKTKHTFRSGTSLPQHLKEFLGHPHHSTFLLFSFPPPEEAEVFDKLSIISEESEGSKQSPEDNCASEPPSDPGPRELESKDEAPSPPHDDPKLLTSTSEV

[2] = biological target: T1, IL-10 receptor signaling complex on …; test: cell-based or functional assay; remark: listed apart in the source

B1: Wild-type His-IL-10 (ligand)
chain: MHHHHHHGSSENLYFQSPGQGTQSENSCTHFPGNLPNMLRDLRDAFSRVKTFFQMKDQLDNLLLKESLLEDFKGYLGCQALSEMIQFYLEEVMPQAENQDPDIKAHVNSLGENLKTLRLRLRRCHRFLPCENKSKAVEQVKNAFNKLQEKGIYKAMSEFDIFINYIEAYMTMKIRN
EC50, STAT3 phosphorylation, B cells, Balb/c mouse splenocytes [1]: 1.3 ng/mL
EC50, STAT3 phosphorylation, CD8 T cells, Balb/c mouse splenocytes [1]: 4.07 ng/mL
EC50, STAT3 phosphorylation, NK cells, Balb/c mouse splenocytes [1]: 1.08 ng/mL
EC50, STAT3 phosphorylation, B cells, B57BL/6 mouse splenocytes [2]: 0.83 ng/mL
EC50, STAT3 phosphorylation, CD8 T cells, B57BL/6 mouse splenocytes [2]: 3.65 ng/mL
EC50, STAT3 phosphorylation, NK cells, B57BL/6 mouse splenocytes [2]: 1.06 ng/mL
